This is an account of results in doi:10.1101/2024.09.06.611644 (bioRxiv, 2024).

For this assay, the target named is wild-type AC fused to GFP (AC-GFP) (GFP moiety: Aequorea victoria …, UniProt P42212 = GFP). Briefly: two-hybrid.

B1: CaM-V9A fusion expressed from pK1Cam-V9A or pK2Cam-V9A (VHH)
VHH: DVQLQESGGGSVQAGGSLRLSCAASGDTFSSYSMAWFRQAPGKECELVSNILRDGTTTYAGSVKGRFTISRDDAKNTVYLQMVNLKSEDTARYYCAADSGTQLGYVGAVGLSCLDYVMDYWGKGTQVTVSS
In the case of B1, the binding result is reported as “binds”.
